{"source": "patent US20260042849", "key": {"[1]": {"test_system": "internally quenched peptide probe with CM 7049 (PFGL, SEQ ID NO: 104)"}, "[2]": {"test_system": "internally quenched peptide probe with CM 7050 (PRGL, SEQ ID NO: 105)"}, "[3]": {"test_system": "internally quenched peptide probe with CM PMGLK (SEQ ID NO: 64)"}, "[4]": {"test_system": "internally quenched peptide probe with CM PWGLRS (SEQ ID NO: 181)"}, "[5]": {"test_system": "internally quenched peptide probe with CM 7051 (PMGL, SEQ ID NO: 106)"}, "[6]": {"test_system": "internally quenched peptide probe with CM RSPWGL (SEQ ID NO: 182)"}, "[7]": {"test_system": "internally quenched peptide probe with CM 7054 (PKGL, SEQ ID NO: 108)"}, "[8]": {"test_system": "internally quenched peptide probe with CM 7041 (PWGL, SEQ ID NO: 100)"}, "[9]": {"test_system": "internally quenched peptide probe with CM APMGLKH (SEQ ID NO: 7)"}, "[10]": {"test_system": "internally quenched peptide probe with CM 7052 (PLGL, SEQ ID NO: 107)"}, "[11]": {"test_system": "internally quenched peptide probe with CM 7047 (PYGL, SEQ ID NO: 103)"}, "[12]": {"test_system": "internally quenched peptide probe with CM 7055 (PHGL, SEQ ID NO: 10)"}, "[13]": {"test_system": "internally quenched peptide probe with CM 7056 (PEGL, SEQ ID NO: 11)"}, "[14]": {"test_system": "internally quenched peptide probe with CM 7053 (PQGL, SEQ ID NO: 9)"}, "[15]": {"test_system": "internally quenched peptide probe with CM PMGLKS (SEQ ID NO: 5)"}}}
{"substance": "human recombinant MMP9 (R&D Systems, catalog No: 911-MP)", "values": [{"measurement": "kcat/KM (M^-1 s^-1)", "setting": "[1]", "result": "greater than 5×10^2 M^-1 s^-1"}, {"measurement": "stated: cleaved (kcat/Km, M-1s-1, bar on a log axis)", "setting": "[1]", "result": "PFGL, MMP9 bar ends at about the 1x10^4 tick"}, {"measurement": "stated: cleaved (kcat/Km, M-1s-1, bar on a log axis)", "setting": "[2]", "result": "PRGL, MMP9 bar ends between 1x10^4 and 1x10^5"}, {"measurement": "Probe Cleavage (kcat/KM)", "setting": "[3]", "result": 140000, "unit": "M⁻¹ s⁻¹"}, {"measurement": "Probe Cleavage (pM/s)", "setting": "[3]", "result": 6080, "unit": "pM/s"}, {"measurement": "Probe Cleavage (kcat/KM)", "setting": "[4]", "result": 150000, "unit": "M⁻¹ s⁻¹"}, {"measurement": "Probe Cleavage (pM/s)", "setting": "[4]", "result": 3830, "unit": "pM/s"}, {"measurement": "stated: cleaved (kcat/Km, M-1s-1, bar on a log axis)", "setting": "[5]", "result": "PMGL, MMP9 bar ends between 1x10^3 and 1x10^4, close under 1x10^4"}, {"measurement": "Probe Cleavage (kcat/KM)", "setting": "[6]", "result": 870000, "unit": "M⁻¹ s⁻¹"}, {"measurement": "Probe Cleavage (pM/s)", "setting": "[6]", "result": 25500, "unit": "pM/s"}, {"measurement": "stated: cleaved (kcat/Km, M-1s-1, bar on a log axis)", "setting": "[7]", "result": "PKGL, MMP9 bar ends just above the 1x10^4 tick"}, {"measurement": "stated: cleaved (kcat/Km, M-1s-1, bar on a log axis)", "setting": "[8]", "result": "PWGL, MMP9 bar ends just above the 1x10^4 tick"}, {"measurement": "Probe Cleavage (kcat/KM)", "setting": "[9]", "result": "2.8e+06", "unit": "M⁻¹ s⁻¹"}, {"measurement": "Probe Cleavage (pM/s)", "setting": "[9]", "result": 115000, "unit": "pM/s"}, {"measurement": "stated: cleaved (kcat/Km, M-1s-1, bar on a log axis)", "setting": "[10]", "result": "PLGL, MMP9 bar ends between 1x10^4 and 1x10^5"}, {"measurement": "kcat/KM (M^-1 s^-1)", "setting": "[11]", "result": "greater than 5×10^2 M^-1 s^-1"}, {"measurement": "stated: cleaved (kcat/Km, M-1s-1, bar on a log axis)", "setting": "[11]", "result": "PYGL, MMP9 bar ends at about the 1x10^4 tick"}, {"measurement": "stated: cleaved (kcat/Km, M-1s-1, bar on a log axis)", "setting": "[12]", "result": "PHGL, MMP9 bar ends between 1x10^3 and 1x10^4"}, {"measurement": "kcat/KM (M^-1 s^-1)", "setting": "[13]", "result": "greater than 5×10^2 M^-1 s^-1"}, {"measurement": "stated: cleaved (kcat/Km, M-1s-1, bar on a log axis)", "setting": "[13]", "result": "PEGL, MMP9 bar ends between 1x10^2 and 1x10^3, just under the 1x10^3 tick"}, {"measurement": "stated: cleaved (kcat/Km, M-1s-1, bar on a log axis)", "setting": "[14]", "result": "PQGL, MMP9 bar ends between 1x10^3 and 1x10^4"}, {"measurement": "Probe Cleavage (kcat/KM)", "setting": "[15]", "result": "3.1e+06", "unit": "M⁻¹ s⁻¹"}, {"measurement": "Probe Cleavage (pM/s)", "setting": "[15]", "result": 133000, "unit": "pM/s"}]}
